According to paper PMC9352546, “The Casein kinase 1α agonist pyrvinium attenuates Wnt-mediated CK1α degradation via interaction with the E3 ubiquitin ligase component Cereblon” (The Journal of Biological Chemistry, 2022):

Target: T1, FLAG-tagged Cereblon (CRBN) (human, UniProt Q96SW2-2 1-441)
T1 construct: also called FLAG-CRBN; Wnt-modulated CRBN; source: HEK293T, transfected (pcDNA3.1(+)), cells treated with PBS or Wnt3a, immunopurified from lysate on beads
Experiment: pull-down; FLAG-CRBN immunopurified from PBS- or Wnt3a-treated (4 h) HEK293T cells, held on BSA-blocked beads; GST-CK1α preincubated with DMSO or pyrvinium at 4 °C for 10 min, then incubated with the beads in binding buffer at 4 °C for 1 h; one 5-min wash; elution in Laemmli buffer, immunoblot
Settings: both partners purified

T1 sequence (Q96SW2 other isoform, or with tags, fused parts or gaps): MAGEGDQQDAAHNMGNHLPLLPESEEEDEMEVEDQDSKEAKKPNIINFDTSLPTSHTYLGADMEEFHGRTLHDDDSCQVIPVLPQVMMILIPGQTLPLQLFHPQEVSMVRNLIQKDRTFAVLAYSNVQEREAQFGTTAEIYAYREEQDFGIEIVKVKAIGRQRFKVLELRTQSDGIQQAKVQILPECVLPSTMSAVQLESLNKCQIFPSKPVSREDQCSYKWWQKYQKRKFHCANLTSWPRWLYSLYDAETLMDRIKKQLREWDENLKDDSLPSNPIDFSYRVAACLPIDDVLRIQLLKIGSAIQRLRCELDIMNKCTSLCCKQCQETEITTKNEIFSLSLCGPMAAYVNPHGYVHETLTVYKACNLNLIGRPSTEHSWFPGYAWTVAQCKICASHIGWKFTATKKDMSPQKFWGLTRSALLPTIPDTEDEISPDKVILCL

B1: Recombinant human glutathione-S-transferase (GST)-CK1α protein (natural protein, UniProt P48729-1 1-337, looked up)
chain: MASSSGSKAEFIVGGKYKLVRKIGSGSFGDIYLAINITNGEEVAVKLESQKARHPQLLYESKLYKILQGGVGIPHIRWYGQEKDYNVLVMDLLGPSLEDLFNFCSRRFTMKTVLMLADQMISRIEYVHTKNFIHRDIKPDNFLMGIGRHCNKLFLIDFGLAKKYRDNRTRQHIPYREDKNLTGTARYASINAHLGIEQSRRDDMESLGYVLMYFNRTSLPWQGLKAATKKQKYEKISEKKMSTPVEVLCKGFPAEFAMYLNYCRGLRFEEAPDYMYLRQLFRILFRTLNHQYDYTFDWTMLKQKAAQQAASSSGQGQQAQTPTGKQTDKTKSNMKGF
notes: Preincubated with DMSO or pyrvinium before it was added to the FLAG-CRBN beads; also called GST-tagged CK1α; recombinant CK1α; source: Sf9 insect cells, purified (GenScript)
- binding result: binds
